Measured values reported in patent publication US20200055939A1.
Positions count from the first letter of the chain named. Where “and” joins values, the source holds several entries; their conditions need not be identical. Equal entries are not always repeated.

Experiments:
V244A = assay: SPR, Fab over captured MICA*008.mIgG2a Ala variant; KD relative to wild type
G275A = assay: as above
R240A = assay: as above
Y283A = assay: as above
Q241A = assay: as above
T292A = assay: as above
I236A = assay: as above
H290A = assay: as above
E285A = assay: as above
S245A = assay: as above
H248A = assay: as above
R279A = assay: as above
D249A = assay: as above
R274A = assay: as above
the other Glyco variants = assay: ELISA, coated variant

V244A, sequence (chain, as listed by the source V244A V244A limits assumed): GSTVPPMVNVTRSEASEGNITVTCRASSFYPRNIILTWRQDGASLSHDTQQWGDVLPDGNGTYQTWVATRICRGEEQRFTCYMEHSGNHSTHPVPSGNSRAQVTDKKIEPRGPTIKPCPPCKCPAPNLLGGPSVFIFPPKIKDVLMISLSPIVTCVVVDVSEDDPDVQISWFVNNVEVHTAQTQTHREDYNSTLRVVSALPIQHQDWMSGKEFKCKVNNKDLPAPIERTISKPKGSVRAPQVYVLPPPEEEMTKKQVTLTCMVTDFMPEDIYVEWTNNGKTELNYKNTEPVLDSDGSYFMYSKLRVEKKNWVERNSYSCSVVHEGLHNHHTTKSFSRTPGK
R240A, sequence (chain, as listed by the source R240A R240A limits assumed): as the sequence (chain, as listed by the source V244A V244A limits assumed) above, with R39A, A43V counted along it
Y283A, sequence (chain, as listed by the source Y283A Y283A limits assumed): as the sequence (chain, as listed by the source V244A V244A limits assumed) above, with A43V, Y82A counted along it
G275A, sequence (chain, as listed by the source G275A G275A limits assumed): as the sequence (chain, as listed by the source V244A V244A limits assumed) above, with A43V, G74A counted along it
S245A, sequence (chain, as listed by the source S245A S245A limits assumed): as the sequence (chain, as listed by the source V244A V244A limits assumed) above, with A43V, S44A counted along it
T292A, sequence (chain, as listed by the source T292A T292A limits assumed): as the sequence (chain, as listed by the source V244A V244A limits assumed) above, with A43V, T91A counted along it
H290A, sequence (chain, as listed by the source H290A H290A limits assumed): as the sequence (chain, as listed by the source V244A V244A limits assumed) above, with A43V, H89A counted along it
Q241A, sequence (chain, as listed by the source Q241A Q241A limits assumed): as the sequence (chain, as listed by the source V244A V244A limits assumed) above, with Q40A, A43V counted along it
R279A, sequence (chain, as listed by the source R279A R279A limits assumed): as the sequence (chain, as listed by the source V244A V244A limits assumed) above, with A43V, R78A counted along it
H248A, sequence (chain, as listed by the source H248A H248A limits assumed): as the sequence (chain, as listed by the source V244A V244A limits assumed) above, with A43V, H47A counted along it
E285A, sequence (chain, as listed by the source E285A E285A limits assumed): as the sequence (chain, as listed by the source V244A V244A limits assumed) above, with A43V, E84A counted along it
D249A, sequence (chain, as listed by the source D249A D249A limits assumed): as the sequence (chain, as listed by the source V244A V244A limits assumed) above, with A43V, D48A counted along it
I236A, sequence (chain, as listed by the source I236A I236A limits assumed): as the sequence (chain, as listed by the source V244A V244A limits assumed) above, with I35A, A43V counted along it
R274A, sequence (chain, as listed by the source R274A R274A limits assumed): as the sequence (chain, as listed by the source V244A V244A limits assumed) above, with A43V, R73A counted along it

B1: 7D4.6 Fab (Fab, V domains shown)
VH: DVQLQESGPGLVKPSQSLSLTCTVTGYSITSDYAWNWIRQFPRNKLEWMGYINYSGTTNYNPSLKSRISITRDTSKNQFFLQLISVTTEDTATYYCSYYRYDGAWFPYWGQGTLVTVSA
VL: DIQMTQSPASLSASVGETVTITCRASGNIHNYLAWYQQKQGKSPQLLVYNAIMLADGVPSRFSASGSGTQYSLKINSLQPEDFGSYYCQHFWSFPLTFGAGTKVEIK
fold-decrease in affinity (V244A): 8.6 | fold-decrease in affinity (G275A): 3.1 | fold-decrease in affinity (R240A): 1500 | fold-decrease in affinity (Y283A): 3.2

B2: 6F8.7 Fab (Fab, V domains shown)
VH: DVQLQGSGPGLVKPSQSLSLTCSVTGYSITNDYYWNWIRQFPGNKLEWMGFISFGGSNNYNPSLKNRISITRDTSKNQFFLKLSSVTTEDTATYYCARYDGRGAWFAYWAQGTLVTVSA
VL: B1 VL with N50D, M53T, A64G, S85N
fold-decrease in affinity (V244A): 5.5

B3: 1D5 Fab (Fab, V domains shown, not shown: a dimerising Fc or GST)
VH: EIQLQQSGPELVKPGASVKVSCKASGYAFTSQNIYWVKQSHGKSLEWIGYIEPYNVVPMYNPKFKGKATLTVDKSSSSAYIHLNSLTSEDSAIYYCARSGSSNFDYWGQGTTLTVSS
VL: EIILTQSPTTMAASPGEKITITCSASSSISSHYLHWYQQKSGFSPKLLIYRTSNLASGVPARFSGSGSGTSYSLTIGTMEAEDVATYYCQQGSSLPLTFGAGTKVEIK
fold-decrease in affinity (Q241A): 9830 | fold-decrease in affinity (T292A): 3040 | fold-decrease in affinity (V244A): 10400 | fold-decrease in affinity (I236A): 0.01 | fold-decrease in affinity (H290A): 14400 | fold-decrease in affinity (G275A): 0.03 | fold-decrease in affinity (E285A): 1060 | fold-decrease in affinity (R240A): 15500 | fold-decrease in affinity (Y283A): 6260 | fold-decrease in affinity (S245A): 13 | fold-decrease in affinity (H248A): 16 | fold-decrease in affinity (R279A): 3950 | fold-decrease in affinity (D249A): 3.5 | fold-decrease in affinity (R274A): 3

B4: 13A9 (antibody, V domains shown)
VH: QVQLQQSGAELVRPGTSVKVSCKASGYAFTNYLIEWVKQRPGQGLEWIGAINPGSGATNYNEKFKDKARLTADKSSNTAYLQFSSLTSDDSAVYFCARFLGNYFDNWGQGATLTVSS
VL: DIQMTQSPASLSASVGETVTITCRASGNIHSYLAWYQQKQGKSPQLLVYYAETLADGVPSRFSGRGSGTQYSLKINSLQPEDFGSYFCQQFWTTPYTFGGGTKVEIK
Elisa value (the other Glyco variants): 3.8 and 3.9
